These results are taken from publication PMC5861098.

This test deals with S. pombe Dcp2(1–243) (S. pombe) (UniProt O13828).
Chain of UniProt O13828 (O13828 1-243): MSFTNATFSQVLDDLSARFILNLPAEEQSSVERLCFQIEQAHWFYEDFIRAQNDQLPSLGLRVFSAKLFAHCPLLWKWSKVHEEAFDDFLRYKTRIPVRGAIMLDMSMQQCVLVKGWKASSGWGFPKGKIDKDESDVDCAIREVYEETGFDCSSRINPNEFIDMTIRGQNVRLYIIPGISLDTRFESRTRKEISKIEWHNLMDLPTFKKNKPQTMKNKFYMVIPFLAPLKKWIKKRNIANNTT

Turning to Sp Edc1 (155–180) peptide, the kmax of single-turnover in vitro decapping of a capped 29-mer RNA by Sp Dcp1–Dcp2(1–243) (m7 in complex with m6), with and without Edc1(155–180) peptide (50 µM) turned out to be 10 fold.
